In article PMC11805746 (Discover Nano, 2025):

Target: IsdB point mutant P173A (IsdB^P173A) (Staphylococcus aureus, UniProt Q2FZF0 41-613, P173A)
Assay: atomic force spectroscopy

B1: methemoglobin (oxidized human hemoglobin A) (complex)
chain 1: not shown
chain 2: not shown
koff: 0.0025 s⁻¹
